Test results reported in PMC4660580, “Mode of interaction of the Gαo subunit of heterotrimeric G proteins with the GoLoco1 motif of Drosophila Pins is determined by guanine nucleotides” (Bioscience Reports, 2015).
Values belong to the compound of their own block, whether it stands above or below them. Ends that are not written are not given here. Peptide text beside a SMILES is read from it. * marks the point of attachment. Dansyl = CN(C)c1cccc2c(S(=O)(=O)*)cccc12

Tests used:
[1] = molecular target: Gαo-GDP (Drosophila melanogaster, UniProt P16378); test: biochemical
Method: (§1) Hexahistidine-tagged Drosophila Gαo, Gαo[W132F; W212F] and Gαo[W132F; W259F] were purified following. In brief, Top10 bacteria transformed with the corresponding construct were grown in LB media until an OD600=0.6, expression was induced with 0.1 mM IPTG and cells further grown overnight at room temperature. Cells were harvested, resuspended in PBS supplemented with Complete Protease Inhibitor cocktail (Roche) and lysed with Lysozyme and sonication. Binding of the His6 tagged proteins to the Ni-NTA agarose was conducted in 10 mM Imidazole in PBS. After washing in 20 mM Imidazole/PBS the proteins were eluted in 200–250 mM Imidazole/PBS. […] The 36-mer GoLoco1 peptide and the GoLoco1 peptide with the dansyl (5-(dimethylamino)naphthalene-1-sulfonyl) group attached to the side chain of the N-terminal lysine were synthesized by Pepscan Presto BV. Non-dansylated GoLoco1 was dissolved in water, dansyl-GoLoco1 was dissolved at 10 mM in 50% propan-2-ol and stored at -20°C.
(§2) Fluorescence measurements were performed at RT using the Biotek SynergyMx plate reader. For all experiments, the Gαo subunits were pre-incubated with 1 mM GDP or GTPγS for >30 min at RT. For FRET measurements, preloaded Gαo was added in a final concentration of 10 μM to increasing concentration of dansylated GoLoco1 in HKB (50 mM Hepes-KOH, 100 mM KCl, 10 mM NaCl, 2 mM EGTA, 5 mM MgCl2, 1 mM DTT) and incubated for 30 min before measurement.

[2] = molecular target: T1, Gαo-GTPγS (Drosophila melanogaster, UniProt P16378); test: biochemical; format: binding; set-up: His6 (hexahistidine); made in house; host or cells: E. coli Top10
Method: Trp-to-dansyl FRET was measured as above.

[3] = molecular target: Hexahistidine-tagged Drosophila Gαo (class II isoform), wild type (Drosophila); test: FRET or BRET; competition: Gαo preloaded with GDP and dansylated GoLoco1 at 1:1 (5–10 μM), pre-incubated 10 min, then increasing unlabelled GoLoco1 in HKB, 30 min, RT; Trp-to-dansyl FRET
[4] = molecular target: Hexahistidine-tagged Drosophila Gαo (class II isoform), wild type (Drosophila); test: FRET or BRET; competition: Gαo preloaded with GTPγS and dansylated GoLoco1 at 1:1 (5–10 μM), pre-incubated 10 min, then increasing unlabelled GoLoco1 in HKB, 30 min, RT; Trp-to-dansyl FRET
[5] = molecular target: T1, Gαo-GTPγS; test: biochemical
Method: as §1, §2

[6] = molecular target: Hexahistidine-tagged Drosophila Gαo[W132F; W212F] (Drosophila); test: FRET or BRET; quenching of the donor: tryptophan fluorescence (excitation 280 nm, emission 330 nm) of 5 μM Gαo preloaded with GDP, 30 min with dansylated against unlabelled GoLoco1, RT; E = 1 - FD-A/FD
[7] = molecular target: Hexahistidine-tagged Drosophila Gαo (class II isoform), wild type (Drosophila); test: as above
[8] = molecular target: Hexahistidine-tagged Drosophila Gαo[W132F; W259F] (Drosophila); test: as above
[9] = molecular target: Hexahistidine-tagged Drosophila Gαo[W132F; W259F] (Drosophila); test: FRET or BRET; quenching of the donor: tryptophan fluorescence (excitation 280 nm, emission 330 nm) of 5 μM Gαo preloaded with GTPγS, 30 min with dansylated against unlabelled GoLoco1, RT; E = 1 - FD-A/FD
[10] = molecular target: Hexahistidine-tagged Drosophila Gαo (class II isoform), wild type (Drosophila); test: FRET or BRET; Trp-to-dansyl FRET (excitation 280 nm, emission 535 nm), saturation: 10 μM Gαo preloaded with 1 mM GTPγS added to increasing dansylated GoLoco1; HKB buffer, 30 min, RT
[11] = molecular target: Hexahistidine-tagged Drosophila Gαo (class II isoform), wild type (Drosophila); test: FRET or BRET; Trp-to-dansyl FRET (excitation 280 nm, emission 535 nm), saturation: 10 μM Gαo preloaded with 1 mM GDP added to increasing dansylated GoLoco1; HKB buffer (50 mM Hepes-KOH, 100 mM KCl, 10 mM NaCl, 2 mM EGTA, 5 mM MgCl2, 1 mM DTT), 30 min, RT

T1 sequence (P16378 other isoform, or with tags, fused parts or gaps): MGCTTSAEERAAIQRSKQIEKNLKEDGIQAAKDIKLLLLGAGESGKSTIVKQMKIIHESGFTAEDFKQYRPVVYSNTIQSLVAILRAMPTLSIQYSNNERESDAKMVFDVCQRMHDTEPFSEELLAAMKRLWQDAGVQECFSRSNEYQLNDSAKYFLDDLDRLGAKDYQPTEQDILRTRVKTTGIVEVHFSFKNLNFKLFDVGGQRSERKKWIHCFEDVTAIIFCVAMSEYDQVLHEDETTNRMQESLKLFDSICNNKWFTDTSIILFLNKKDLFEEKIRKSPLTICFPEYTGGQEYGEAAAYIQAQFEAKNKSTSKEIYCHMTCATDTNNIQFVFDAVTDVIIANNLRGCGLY
Chain of Gαo-GDP (P16378 other isoform, or with tags, fused parts or gaps): as above

Compound: CC[C@H](C)[C@H](NC(=O)[C@H](CO)NC(=O)[C@H](CS)NC(=O)[C@H](CCCNC(=N)N)NC(=O)[C@H](CCC(N)=O)NC(=O)[C@H](CC(=O)O)NC(=O)[C@H](CC(=O)O)NC(=O)[C@H](CCSC)NC(=O)[C@H](CCCNC(=N)N)NC(=O)[C@H](CCCCN)NC(=O)[C@H](CO)NC(=O)[C@H](CCC(N)=O)NC(=O)[C@H](CO)NC(=O)[C@H](CCCNC(=N)N)NC(=O)[C@H](CO)NC(=O)[C@H](CC(C)C)NC(=O)[C@H](CCSC)NC(=O)[C@H](CCC(=O)O)NC(=O)[C@H](Cc1ccccc1)NC(=O)[C@H](Cc1ccccc1)NC(=O)[C@H](CC(=O)O)NC(=O)[C@H](CC(=O)O)NC(=O)[C@H](CC(=O)O)NC(=O)[C@@H](N)CCCCNS(=O)(=O)c1cccc2c(N(C)C)cccc12)C(=O)N[C@@H](CCCCN)C(=O)N[C@H](C(=O)N[C@@H](CC(N)=O)C(=O)N1CCC[C@H]1C(=O)N[C@@H](CO)C(=O)NCC(=O)N[C@@H](C)C(=O)N1CCC[C@H]1C(=O)N[C@@H](C)C(=O)N[C@H](C(=O)N[C@@H](C)C(=O)N[C@H](C(=O)O)[C@@H](C)O)C(C)C)C(C)C [dGoLoco1] (H-K(Dansyl)DDDFFEMLSRSQSKRMDDQRCSIKVNPSGAPAVAT-OH)
Kd [1]: 4.6 µM
Kd [2]: 2.1 µM

Ki [3]: 17.6 µM
Ki [4]: 10.6 µM
Compound: GoLoco1 peptide of Drosophila Pins (unlabelled)

Compound: KDDDFFEMLSRSQSKRMDDQRCSIKVNPSGAPAVAT [GoLoco1]
Ki [5]: 10.6 µM
Ki [1]: 17.6 µM

FRET efficiency E [6]: 0.478
FRET efficiency E [7]: 0.474
FRET efficiency E [8]: 0.544
FRET efficiency E [9]: 0.127
Kd [10]: 2.1 µM
Kd [11]: 4.6 µM
Compound: dansylated GoLoco1 peptide of Drosophila Pins
